# In patent US20230257448A1 (TWIST BIOSCIENCE, published 2023):
# B1: 3-31 (Fc fusion)
# chain: EVQLVESGGGLVQPGGSLRLSCAASGSTFSINAMGWFRQAPGKEREFVAGITSSGGYTNYADSVKGRFTISADNSKNTAYLQMNSLKPEDTAVYYCAADGVPEYSDYASGPVWGQGTLVTVSS
# Tests used:
# Settings in all cases: remark: other sources report otherwise
# [1] = molecular target: prefusion-stabilized S trimer of the Omicron (B.1.529) variant (SARS-CoV-2), P0DTC2
# [2] = molecular target: prefusion-stabilized S trimer of the Delta variant (SARS-CoV-2), P0DTC2
# [3] = molecular target: S1 monomer of SARS-CoV-2 Delta (SARS-CoV-2), P0DTC2
binder,measurement,setting,value
B1,Kd,[1],2.1 nM
same,Kd,[2],< 0.016 nM
same,Kd,[3],1.1 nM
